This note sets out measurements from publication PMC4437517.

What all share (assay type): biochemical, Arabidopsis thaliana
Substrate in data set [1]: N[C@@H](Cc1ccc(OP(=O)(O)O)cc1)C(=O)O
Description: Malachite Green phosphate release, non-linear fit. The note with it: pH 5.0, no metal, 37 °C, substrate inhibition above 3.0 mM.

Substrate in data set [2]: Nc1ncnc2c1ncn2[C@@H]1O[C@H](COP(=O)(O)OP(=O)(O)OP(=O)(O)O)[C@@H](O)[C@H]1O
The data set is described as follows: Malachite Green phosphate release, non-linear fit. Conditions: pH 5.0, no metal, 37 °C.

Substrate in data set [3]: O=[N+]([O-])c1ccc(OP(=O)(O)O)cc1
Description: phosphatase assay, non-linear fit. The note with it: pH 5.0, no metal, 37 °C.

B1: At1g05000 (Arabidopsis thaliana; M1S) (protein)
chain: SKLVEKTTTTEQDNGEDFCRTIIEVSEVNRNVFQAPGGEADPFRVVSGEELHLIPPLNFSMVDNGIFRSGFPDSANFSFLQTLGLRSIIYLCPEPYPESNLQFLKSNGIRLFQFGIEGNKEPFVNIPDHKIRMALKVLLDEKNHPVLIHCKRGKHRTGCLVGCLRKLQKWCLTSIFDEYQRFAAAKARVSDQRFMEIFDVSSFSHIPMSFSCSIR
As a reminder, the Km is the substrate concentration at which the rate is half of its maximum. A word on the Vmax: it is the top rate of the reaction or transport when substrate is in excess. One may read the kcat as the number of substrate molecules converted per active site and unit of time at saturation. Usually kcat/Km stands for the turnover number divided by the Michaelis constant. On to B1, for which, in data set [1], the Km was 880 ± 100 µM, the Vmax was 0.19 µmol/min/mg, the kcat is 0.077 ± 0.004 s⁻¹ and the kcat/Km is 87.5 M⁻¹ s⁻¹. In data set [2], the Km is 480 ± 50 µM, the Vmax was 1.52 µmol/min/mg, the turnover number (kcat) worked out at 0.62 ± 0.02 s⁻¹ and the kcat/Km is 1290 M⁻¹ s⁻¹. In data set [3], the Km was determined as 670 ± 140 µM, the Vmax was 0.64 µmol/min/mg, the kcat came to 0.26 ± 0.02 s⁻¹ and the catalytic efficiency (kcat/Km) stood at 392 M⁻¹ s⁻¹.
